{"source": "the DeepSol protein solubility set", "data": [{"assay": "soluble on expression in E. coli; label from the status in PepcDB or PDB records", "values": [{"sequence": "MPLLSVIIPFGLSKERPYIEERVLQKAKFFQSDENIEFIFVEGYSSKDHELKNFIQANHHIYLKDMDQKAFSQGRCRNLGASYAHSNVLLFLDVDCYISLDNFEKILKLIQIKNISQNINALIVLPVVYLNKEANEKLKQYDDKFWDILIQEDLFTAKNTWVKFFAPSSTSSIVINKHQFLRLGGNDENFIGHGYEDFDLFARILKACVSFEKMPTNLSYDARNWNFFNFKGFRSWFSLLGYEACFYGIYIYHFYHIEPNQNAYMQNKDKNHQLFYKHLKNIKKHDLKPLQVFKAKGEKVLMLFKDQNYDFKDISVYVGEIIYKNISDFFIAKELKYELLLDFLQQEKITKIFLDASIKLQFNGIDYCDIFYFQKGILPHSWFFAKKLDLGYKQDLNLSEQKLYQVKEYFLTLKEDEKKVILDFLSQNNDDKYDLYKMLYYLINELYSFEHDGIFYQIIIDKEKMLIAQKHDKSFYPLRSFVYKPYLHELKSIRPFSFLMKILGLEYLGAMISHTKFYRLARKLFFNPKGFFEDFNYKIMKGKI", "soluble on expression in E. coli": "not soluble"}, {"sequence": "MPLPDFHVSEPFTLGIELEMQVVNPPGYDLSQDSSMLIDAVKNKITAGEVKHDITESMLELATDVCRDINQAAGQFSAMQKVVLQAATDHHLEICGGGTHPFQKWQRQEVCDNERYQRTLENFGYLIQQATVFGQHVHVGCASGDDAIYLLHGLSRFVPHFIALSAASPYMQGTDTRFASSRPNIFSAFPDNGPMPWVSNWQQFEALFRCLSYTTMIDSIKDLHWDIRPSPHFGTVEVRVMDTPLTLSHAVNMAGLIQATAHWLLTERPFKHQEKDYLLYKFNRFQACRYGLEGVITDPHTGDRRPLTEDTLRLLEKIAPSAHKIGASSAIEALHRQVVSGLNEAQLMRDFVADGGSLIGLVKKHCEIWAGD", "soluble on expression in E. coli": "soluble"}, {"sequence": "MPLPYDKEKKLWKVTGWYLESSEETGEVMQSKQIAFEGYTNEENFANRQRVSVFKSFYESGNLKSIYHYNAQNKRDGKAETYFDEKDKIAETLTFKDGQPEGEYIVYHENGAVESKRYFAQGKIKDGECPHFYDNGVLKQKHSYLNQKLEGPAFEYFPDGKIKGKYSYSKGTIVGTSTEYYSTGKIRGVYHRNNQGENDGTFEQYSEEGKLLSKATYKNGKQLSAQSWYENGHPKEESSFDSEGRKHGAVKEWFSNGKPASSKMYKHDVLDGDFEKWYENGHRESVYPYKNGMLNGDAKHWNEQGKLTYTTEYKDDKKQGADRRWSERTGKLVEEVMFANDERNGLKREFNDRTGKVLSALPYVDGDKEGTEEAYDEDGIKYIRCYHNDEELSELYAPTDVTNKAKQGDSTAQYHLGKYEFECTNYDAAMKWLTQSAEQNHPGALLFLAYAYNDGDGVAQDSKKYLSYLFKAAELGESDAQLEVGYLNLIGEGMPKNLPEAYKWIKKSADQGNAQAHYNLGLMYRNGDGVEKDLNKAKLHLTAAVKGGVKPALAALKELTPQTKLEHHHHHH", "soluble on expression in E. coli": "not soluble"}, {"sequence": "MPLSPLDIHNKEFTRGFRGYDEDEVNDFLDQIIKDYEQVIKEKKRIEDTLNNSEERLGHFTNIEETLNKSLIVAQTAAEEVKASAEKEAKLIIREAEKNADRILSDSLSKARKIAIEIEDLKRQSKVFRERLRMLVEAQMDLIKSEDWQQMMAYDVDATELASIKEVESAESEER", "soluble on expression in E. coli": "not soluble"}, {"sequence": "MPLTPLDIHNKEFTRGFRGYDEDEVNEFLDQIIKDYEAVLREKKELFDRVTDLDEKLEHFQNIEETLNKSILVAQESAEEVRRNAQKEAQLIVKEAEKNADRIINDALAKSRKIMLEMEELKKQASVYKMRFKMLIEAQLEMLNTDDWDEVTEDSGDERSEEYAE", "soluble on expression in E. coli": "not soluble"}, {"sequence": "MPLVSVVMPVYNSAATLGAAVRSVLTQTHGDLELLVTDDQSSDGSMDLLREFAAQDERVLPRSSPERGGAGRARNLAIERARGDYVAFLDSDDMWLPEKTEKQLAFAAEGTAPLTFTSYFKMDADHDGESTDWVPNGRVIRAREHVDYRAMLVQDHIGALTAMYDRNVLGTRLMPEMRKRQDYALWLSIMRDGADARGLAEPLAVYRAHQAGSLSSNKLSLVEYNWALYREHENLSVPRATRALAGAVWQSLRNSRILEHHHHHH", "soluble on expression in E. coli": "not soluble"}, {"sequence": "MPLVVFCGLPYSGKSRRAEELRVALAAEGRAVYVVDDAAVLGAEDPAVYGDSAREKALRGALRASVERRLSRHDVVILDSLNYIKGFRYELYCLARAARTPLCLVYCVRPGGPIAGPQVAGANENPGRNVSVSWRPRAEEDGRAQAAGSSVLRELHTADSVVNGSAQADVPKELEREESGAAESPALVTPDSEKSAKHGSGAFYSPELLEALTLRFEAPDSRNRWDRPLFTLVGLEEPLPLAGIRSALFENRAPPPHQSTQSQPLASGSFLHQLDQVTSQVLAGLMEAQKSAVPGDLLTLPGTTEHLRFTRPLTMAELSRLRRQFISYTKMHPNNENLPQLANMFLQYLSQSLH", "soluble on expression in E. coli": "soluble"}, {"sequence": "MPMISCDMAYGRTDEQKRALSAGLLRVISEATGEPRENIFFVIREGSGINFVEHGEHLPDYVPGNANDKALIAKLK", "soluble on expression in E. coli": "soluble"}, {"sequence": "MPMKDISDFAANDPNKDYCVYCSRPDGEMQSFEEKKESLTKFIVKTQGADENVAWKIAENMMHKLPAWKEYFN", "soluble on expression in E. coli": "not soluble"}, {"sequence": "MPNVIGVQFQKAGKLEYYTPNDIQVDIDDWVVVESKRGIEIGIVKNPLMDIAEEDVVLPLKNIIRVADDKDIDKFNCNERDAENALILCKDIVREQGLDMRLVNCEYTLDKSKVIFNFTADDRIDFRKLVKILAQHLKTRIELRQIGVRDEAKLLGGIGPCGRSLCCSTFLGDFEPVSIKMAKDQNLSLNPTKISGACGRLMCCLKYENDYYEEVRAQLPDIGEAIETPDGNGKVVALNILDISMQVKLEGHEQPLEYKLEEIETMHLEHHHHHH", "soluble on expression in E. coli": "not soluble"}, {"sequence": "MPPCYPFMLSWKGWARDSPGRPGGAMRAHIITYGCQMNEYDSHLVASELVSLGWELVDSVEEADFVLVNTCAVRGKPVEKVRSLLGQLRKEKERRGLLIGMMGCLAQLDEGQQMAKKFGVDVLLGPGALTSLPEALKANERFWDLTFREDVLDYIPPPPKGALSAHVTIIRGCNHHCTYCIVPTTRGPEVSRHPDLILKEIELLKQAGVVEVTLLGQNVNSYGKDQPGFPSFAELLRMVGGMGIPRVRFLTSHPVNFTDDIIEAIAETPAICRYIHLPVQSGSDRVLRRMAREYRRAHYLERIRKIREALPDAVLSTDIIVGFPGETEEDFQETLSLYDEVGYDQAYMFIYSPRPGTPAYKHFQDLPREVKVERLMRLIEKQKEWSYRRNLEWVGKTVEVLVRGEAKEEGFVQGHDRGNHPVLVPASQAPVPGLYQVEIKQATPHLLFGEVVGAEAPAPIPLPVA", "soluble on expression in E. coli": "soluble"}, {"sequence": "MPPFMSGLRAVSSLLSCRNAISRKLVSRSGIPRGSFVSDQIRRFGSLSGVERCSSNWLMSNDDARVSFRRLPGSVSLLQRRHFLGCGDGEEGGGELSKIYEERRVLGYTPEQMFNVVAAVDLYHGFVPWCQRSEVLKEYPDGSFDAELEIGFKFLVESYISHVESERPKWIKTTARDTGLFDHLINLWQFKPGPIPGTCDLHFHVDFKFNSPLYRQVASMFFKEVASRLVGAFSDRCRLVYGPGVRVDENAYEQRA", "soluble on expression in E. coli": "soluble"}, {"sequence": "MPPLPEKVQSHRATPIQSSGVSALPLVEYHAPGSDRLAIMISGDGGWRTLDRNLSKELQRRGISVVGWNSLRYFWKLRTPEQLGDDLSRVIADYQRRWGAHQVILIGYSFGADVMPFAYAHLMPTQRNGVDFISLLALGRKADFKARIFGWLGWGEHGTRDVLTALGALDLHRVQCIYGQNDKDAVCPELRERIFDVVMRPGGHHFDGDTVKLADAILQGWQRRIELREPRNADSPR", "soluble on expression in E. coli": "not soluble"}, {"sequence": "MPPVVPCHCTQCRKWSGHFWAATSVAMADFRLVRDEGLRWFRASDTASRGFCALCGSSLSWKPDGRDRMSFSPGAVDGPTGLATGHHIFMDEAGDYCRVSDGTPHYPGDDEA", "soluble on expression in E. coli": "not soluble"}, {"sequence": "MPQEKMARLYNLNYTIASQVNPHVVPFMQSDASRYRKDILSWPQRILRRQGKVISLGIMDFTRERLGNVPPVRRLLDHGYGIVGQRYYGDVNIIAPFNLRQYAYMLQNPRPHLFKLLQQQGERATWPKISAIETHARIGKTIQHCIEVLDYQKNRYIQAEKASALEHHHHHH", "soluble on expression in E. coli": "not soluble"}, {"sequence": "MPQYKGSREVISIHVGQAGVQIGNACWELFCLEHGIQPDGYHVEDDTYDEETETINTFFAETAGGKHVPRCLFVDLEPTVVDEVRTGTYRSLFHPEQLLSGKEDAANCYARGRYTIGREMIDVVMDRVKRLAENCNGLQGFVIFHSFGGGTGSGFLSLLMERLSTEYGKKPKLEFAIYPAPQVSTSMVEPYNSILMTHTTLEHSDCTFMVDNEAIYDICRRNLDLARPTYTNLNRLVAQIISSITASLRFEGALNVDLTEFQTNLVPYPRIHFPLVTYAPLVSAERASHEQNTVSDMTHACFEPGYQMVKCDPRRGKYMAVCLLYRGDVVPKDINSAIAAVKTKRTVQFVEWCPTGFKVGINYQPPTVVPGGDLGKQTRSVCMISNTTAIAEAWARLDHKFDLMYAKRAFVHWYVGEGMEEGEFSEAREDMAALEKDYEEIGEDELPDDIDDQSYRGRSSGSRY", "soluble on expression in E. coli": "not soluble"}, {"sequence": "MPRALNDRSSALTAQNLIALPERFGCPVWAYDGDIIAERINQLRHFDVIRFAQKACSNIHILRLMREQGVKVDSVSLGEIERALHAGYQPGQEPAEIVFTADLLDQATLLRVTELNIPVNAGSIDMLDQLGQQAPGHPVWLRVNPGFGHGHSQKTNTGGENSKHGIWHEELPRALKKIEHYGLTLVGIHMHIGSGVDYQHLEQVCDAMVQQVITLGHDISAISAGGGLSIPYQFGDDVIDTEHYYGLWNSARERIAAHLGHPVSLEIEPGRFLVAESGVLIAQVRAVKDMGRRHYVLVDAGFNDLMRPAMYGSYHHISLLPADGRDLTSAPLIDTVVAGPLCESGDVFTQQEGGGVETLALPAAVIGDYLVFHDTGAYGASMSSNYNSRPLLPEVLFEKGQPRLIRRRQTIEELIDLERV", "soluble on expression in E. coli": "not soluble"}, {"sequence": "MPSKTFLLTHTFKDISKLGEGESYYSDIEIRYNIPWSIQVFKNESFLGLLLNCEKEELLEKKKWSLQVKFTMKLVAVSGKFFQRTVKNEFQNPEGHGMDKFISWENMLRDYVNNDSIVIEINADIVSSSGFFKHKYSPCSQSYSGKSFVLKHNFKNRRFVEAERCFSDIEEHYNVPWRLRIQKYKKGFLGIHLLCEKETCDGRSWSIQCDYELQLISSKGKCYSRHSTFNFEKPGGNYQEVEFINWKVMEEEYMDSDSICVEAHVKICKTQELPCNILSTHRKFVLSHTVRNISSINGGNVYFTDIETRFNVPWKLSFVRQSGFIELYLRCEKKQCLSRTWSIEAEFTLKLVSPHGRSLSLRKIYSFEKSIGNGYSKVMRWDEMKDKYVVDNSIIIEAHVKILNMTGIESETTIKKTSGFTIPVGDMEYSMEKWMEMAFDH", "soluble on expression in E. coli": "not soluble"}, {"sequence": "MPSLVIQDGGASIIRAVRPEEFAPQAPGKLLAIGRGVYAFLPDPLPPRLEWSLRLIALLDEARGALGELAGLLRQLPNPYLFIRPFIQKEAVLSSRIEGTQAGLLDVYALEAQVPLFPSPKLREDAQEVLNYIRALERGRELLQEIPLSLRLLKEVHAVLLRGVRGGGRAPGEFRRAQNWIGPPGSSLEEARYVPPPPGPMLEALDALERFWHSDHGLPPLVEIALVHYQFEAIHPFLDGNGRMGRLLITLMLLERGLLPEPALYLSAYFERHRTLYYDLLLGVSQRGAWEDWLAFFLEGVRTEAKDVAERARRLLDLWREWRERYGRKGGSAHILGLLDLLFERPVLTVPLVKDRLGITHAWANRLVQRLEEDGILTPVSERKRNRLYAAKEILEILEEARNA", "soluble on expression in E. coli": "soluble"}, {"sequence": "MPSTSMIEDRSEIERRRFEYLDHPADIQLHSWGSTMEEAFEACLVSMFGYMTDLAKVDEMYEFYWKASGDSLDGLLFQFLDEALNSFHAEPCFVAKRVEILRFDKKKFEIEFRGWGESFDTSKHETEADIKSPTYSNMQINEKPERCDIYVIVDI", "soluble on expression in E. coli": "not soluble"}, {"sequence": "MPSYKLTYFDACGFGESARMLFHLGGVPYEDVRLPTINAVPGFQSDEFSALKDKTPFGRFTVLSIDGFDLAQSSAIHRYLARKFGYAGKTPEDEAFADSIVDQFNEYYASLHPYRDAVKTGKTMEEVKQIHDKVYIPAKNLMFKILTRILKENKSGFLVGDGLTWADLVVADHLYTLTNLKELDPEDPIHLTLRKFQEKIFNLTELKDYIETRPVTLV", "soluble on expression in E. coli": "not soluble"}]}]}
